T1: CRP (UniProt P02741 19-224)
T1 construct: Bought protein coated on plates; also called C reactive protein
T1 sequence (looked up): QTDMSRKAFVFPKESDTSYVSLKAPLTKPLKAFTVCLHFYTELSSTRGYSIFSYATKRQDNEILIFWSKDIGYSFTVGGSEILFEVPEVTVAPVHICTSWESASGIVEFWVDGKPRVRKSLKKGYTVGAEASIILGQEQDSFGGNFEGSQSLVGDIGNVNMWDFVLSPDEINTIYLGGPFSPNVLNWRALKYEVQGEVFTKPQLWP

B1: rCFHT-I62 Protein (other)
chain: EDCNELPPRRNTEILTGSWSDQTYPEGTQAIYKCRPGYRSLGNIIMVCRKGEWVALNPLRKCQKRPCGHPGDTPFGTFTLTGGNVFEYGVKAVYTCNEGYQLLGEINYRECDTDGWTNDIPICEVVKCLPVTAPENGKIVSSAMEPDREYHFGQAVRFVCNSGYKIEGDEEMHCSDDGFWSKEKPKCVEISCKSPDVINGSPISQKIIYKENERFQYKCNMGYEYSERGDAVCTESGWRPLPSCEEKSCDNPYIPNGDYSPLRIKHRTGDEITYQCRNGFYPATRGNTAKCTSTGWIPAPRCTLKPCDYPDIKHGGLYHENMRRPYFPVAVGKYYSYYCDEHFETPSGSYWDHIHCTQDGWSPAVPCLRKCYFPYLENGYNQNYGRKFVQGKSIDVACHPGYALPKAQTTVTCMENGWSPTPRCIRVSFTL
notes: Purified recombinant protective CFHT (I62, Y402); also called purified recombinant CFHT-I62 protein; recombinant CFHT-I62
B2: CFHT.0 (pCTM297) (other)
chain: B1 chain
notes: also called unmodified CFHT; protective CFHT
B3: His-mCFHT.2 (pCTM460) (other)
chain: EDCNELPPRRNTEILTGSWSDQTYPEGTQAIYKCRPGYRSLGNIIMVCRKGEWVALNPLRKCQKRPCGHPGDTPFGTFTLTGGNVFEYGVKAVYTCNEGYQLLGEINYRECDTDGWTNDIPICEVVKCLPVTAPENGKIVSSAMEPDREYHFGQAVRFVCNSGYKIEGDEEMHCSDDGFWSKEKPKCVEISCKSPDVINGSPISQKIIYKENERFQYKCNMGYEYSERGDAVCTESGWRPLPSCEEKSCDNPYIPNGDYSPLRIKHRTGDEITYQCRNGFYPATRGNTAKCTSTGWIPAPRCTLKPCDYPDIKHGGLYHENMRRPYFPVAVGKYYSYYCDEHFETPSGSYWDHIHCTQDGWSPAVPCLRKCYFPYLENGYNQNYGRKFVQGKSIDVACHPGYALPKAQTTVTCMENGWSPTPRCIRVRKCYFPYLENGYNQNYGRKFVQGKSIDVACHPGYALPKAQTTVTCMENGWSPTPRCIRVRKCYFPYLENGYNQNYGRKFVQGKSIDVACHPGYALPKAQTTVTCMENGWSPTPRCIRVSFTL
notes: Protective CFHT with two additional C-terminal SCR7 domains; no residue range stated; HEK293 supernatant; not shown: N-terminal 6x His-TEV tag (87 bp, 29 residues by transgene size: 1791 against 1704)
B4: His-dCFHT.0 (pCTM462) (other)
chain: EATFCDFPKINHGILYDEEKYKPFSQVPTGEVFYYSCEYNFVSPSKSFWTRITCTEEGWSPTPKCLRLCFFPFVENGHSESSGQTHLEGDTVQIICNTGYRLQNNENNISCVERGWSTPPKCRSGGGGSGGGGSEDCNELPPRRNTEILTGSWSDQTYPEGTQAIYKCRPGYRSLGNIIMVCRKGEWVALNPLRKCQKRPCGHPGDTPFGTFTLTGGNVFEYGVKAVYTCNEGYQLLGEINYRECDTDGWTNDIPICEVVKCLPVTAPENGKIVSSAMEPDREYHFGQAVRFVCNSGYKIEGDEEMHCSDDGFWSKEKPKCVEISCKSPDVINGSPISQKIIYKENERFQYKCNMGYEYSERGDAVCTESGWRPLPSCEEKSCDNPYIPNGDYSPLRIKHRTGDEITYQCRNGFYPATRGNTAKCTSTGWIPAPRCTLKPCDYPDIKHGGLYHENMRRPYFPVAVGKYYSYYCDEHFETPSGSYWDHIHCTQDGWSPAVPCLRKCYFPYLENGYNQNYGRKFVQGKSIDVACHPGYALPKAQTTVTCMENGWSPTPRCIRVSFTL
notes: Protective CFHT with the FHR-1 SCR1/2 homodimerization domain at the N-terminus ('dimer CFHT'); copies 2 follows that description, dimer state not measured; no residue range stated; also called purified recombinant dCFHT.0; not shown: 6x His-TEV tag (87 bp, 29 residues by transgene size: 1839 against 1752)
B5: His-mCFHT.1 (pCTM459) (other, not shown: small tags and cut ends)
chain: EDCNELPPRRNTEILTGSWSDQTYPEGTQAIYKCRPGYRSLGNIIMVCRKGEWVALNPLRKCQKRPCGHPGDTPFGTFTLTGGNVFEYGVKAVYTCNEGYQLLGEINYRECDTDGWTNDIPICEVVKCLPVTAPENGKIVSSAMEPDREYHFGQAVRFVCNSGYKIEGDEEMHCSDDGFWSKEKPKCVEISCKSPDVINGSPISQKIIYKENERFQYKCNMGYEYSERGDAVCTESGWRPLPSCEEKSCDNPYIPNGDYSPLRIKHRTGDEITYQCRNGFYPATRGNTAKCTSTGWIPAPRCTLKPCDYPDIKHGGLYHENMRRPYFPVAVGKYYSYYCDEHFETPSGSYWDHIHCTQDGWSPAVPCLRKCYFPYLENGYNQNYGRKFVQGKSIDVACHPGYALPKAQTTVTCMENGWSPTPRCIRVRKCYFPYLENGYNQNYGRKFVQGKSIDVACHPGYALPKAQTTVTCMENGWSPTPRCIRVSFTL
notes: Protective CFHT with one additional C-terminal SCR7 domain; also called purified recombinant mCFHT.1

Columns and labels:
C3b protein [1] = target: T2, C3b protein (UniProt P01024 23-667; P01024 749-1663, limits assumed); test: plate binding ELISA on coated C3b; fold vs (-) control pCTM395 supernatant
T2 construct: domain: C3b; Bought protein coated on plates
T2 sequence (P01024 23-667 limits assumed, chain 1 of 2): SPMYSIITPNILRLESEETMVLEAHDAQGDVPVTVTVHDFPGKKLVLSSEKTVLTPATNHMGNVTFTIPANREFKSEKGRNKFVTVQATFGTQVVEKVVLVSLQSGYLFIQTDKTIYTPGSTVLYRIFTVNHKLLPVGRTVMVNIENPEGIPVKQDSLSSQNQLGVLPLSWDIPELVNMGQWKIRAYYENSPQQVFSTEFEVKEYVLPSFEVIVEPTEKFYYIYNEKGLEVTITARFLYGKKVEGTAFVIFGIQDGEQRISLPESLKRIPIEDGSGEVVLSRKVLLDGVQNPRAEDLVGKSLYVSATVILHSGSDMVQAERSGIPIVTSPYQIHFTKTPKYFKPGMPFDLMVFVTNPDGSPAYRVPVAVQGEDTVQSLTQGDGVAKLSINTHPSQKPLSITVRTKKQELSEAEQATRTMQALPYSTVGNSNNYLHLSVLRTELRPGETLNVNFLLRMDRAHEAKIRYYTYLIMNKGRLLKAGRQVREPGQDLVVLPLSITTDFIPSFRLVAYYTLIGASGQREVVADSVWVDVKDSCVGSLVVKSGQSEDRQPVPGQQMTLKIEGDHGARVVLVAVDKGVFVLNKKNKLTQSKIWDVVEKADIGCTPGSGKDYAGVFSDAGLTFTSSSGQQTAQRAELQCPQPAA
T2 sequence (P01024 749-1663 limits assumed, chain 2 of 2): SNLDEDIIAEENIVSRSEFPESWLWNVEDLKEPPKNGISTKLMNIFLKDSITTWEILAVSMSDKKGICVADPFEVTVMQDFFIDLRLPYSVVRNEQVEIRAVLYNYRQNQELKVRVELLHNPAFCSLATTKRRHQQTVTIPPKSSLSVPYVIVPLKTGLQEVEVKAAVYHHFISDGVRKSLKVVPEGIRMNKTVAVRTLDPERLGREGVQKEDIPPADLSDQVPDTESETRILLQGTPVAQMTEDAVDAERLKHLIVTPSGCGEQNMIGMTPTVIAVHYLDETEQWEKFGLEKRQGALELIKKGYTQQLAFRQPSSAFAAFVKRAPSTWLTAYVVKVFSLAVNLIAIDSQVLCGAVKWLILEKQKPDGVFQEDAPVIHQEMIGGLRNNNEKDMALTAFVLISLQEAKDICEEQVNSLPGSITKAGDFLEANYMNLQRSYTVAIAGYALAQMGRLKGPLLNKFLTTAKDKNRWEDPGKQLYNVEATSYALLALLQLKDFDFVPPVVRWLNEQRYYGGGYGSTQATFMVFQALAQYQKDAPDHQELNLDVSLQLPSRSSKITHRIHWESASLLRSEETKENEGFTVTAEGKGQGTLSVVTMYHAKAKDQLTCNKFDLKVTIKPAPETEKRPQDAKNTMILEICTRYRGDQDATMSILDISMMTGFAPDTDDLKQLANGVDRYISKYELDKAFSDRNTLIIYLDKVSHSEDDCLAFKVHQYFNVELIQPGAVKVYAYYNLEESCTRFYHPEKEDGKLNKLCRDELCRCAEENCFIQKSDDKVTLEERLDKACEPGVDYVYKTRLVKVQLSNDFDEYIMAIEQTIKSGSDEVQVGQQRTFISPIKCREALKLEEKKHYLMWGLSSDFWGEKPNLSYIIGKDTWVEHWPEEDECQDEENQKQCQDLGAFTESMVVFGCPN

CRP [2] = target: T1, CRP; test: plate binding ELISA on coated CRP; fold vs (-) control pCTM395 supernatant
C3b protein [3] = target: T2, C3b protein; test: plate binding ELISA on coated C3b, HEK293 supernatant 25 ng/mL; fold vs (-) control pCTM395 supernatant
Procedure: The C3b binding assay uses C3b protein (Complement Technology, Cat. #A114) diluted with 50 mM carbonate coating buffer (pH 9.6) at a final concentration of 50 μM. A total of 100 μl of C3b/carbonate solution was added to each well of a black MaxiSorp 96-wellmicroplate, covered and incubated overnight at 4° C. Blank control wells were incubated with carbonate coating buffer containing no C3b protein. Wells were washed 3 times with 300 μl PBST then blocked for 1 hour with reagent dilution buffer (1% BSA in PBS). Wells were washed again 3 times with 300 μl PBST. […] The plate was washed as above then incubated for 1 hour with anti-CFH/CFHT biotinylated aCTM87b antibody (OX-24, AbCam, Cat. #ab112197) at 1:1000 dilution. The plates were washed as above, then incubated for 1 hour with high sensitivity Streptavidin-HRP (Pierce Cat. #21130) at 1:10,000, washed as above then incubated for 5 minutes with SuperSignal ELISA Pico Chemiluminescent Substrate (Thermo Scientific, Cat. #37069) before detection using the BioTek Synergy4 plate reader.
For C3b assays, 25 ng/mL of CFHT protein-containing supernatant was added to plates coated with C3b.

CRP [4] = target: T1, CRP; test: plate binding ELISA on coated CRP, HEK293 supernatant; fold vs (-) control pCTM395 supernatant
C3d ligand = target: T3, C3d ligand (UniProt P01024 1002-1303, limits assumed); test: plate binding assay on C3d, purified protein; fold vs CFHT-I62
T3 construct: domain: C3d
T3 sequence (P01024 1002-1303 limits assumed): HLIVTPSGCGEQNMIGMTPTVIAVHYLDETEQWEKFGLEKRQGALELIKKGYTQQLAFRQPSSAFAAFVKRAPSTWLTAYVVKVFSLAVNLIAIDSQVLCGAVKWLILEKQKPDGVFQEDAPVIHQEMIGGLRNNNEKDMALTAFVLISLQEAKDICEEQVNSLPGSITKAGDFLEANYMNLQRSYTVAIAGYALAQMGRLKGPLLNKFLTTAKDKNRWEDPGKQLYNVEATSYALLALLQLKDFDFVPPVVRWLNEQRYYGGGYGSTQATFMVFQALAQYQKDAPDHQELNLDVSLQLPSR

CRP [5] = target: T1, CRP; test: plate binding ELISA on coated CRP, purified protein; fold vs CFHT-I62
C3b protein [6] = target: T2, C3b protein; test: plate binding ELISA on coated C3b, purified protein; fold vs CFHT-I62
Procedure: The C3b binding assay uses C3b protein (Complement Technology, Cat. #A114) diluted with 50 mM carbonate coating buffer (pH 9.6) at a final concentration of 50 μM. A total of 100 μl of C3b/carbonate solution was added to each well of a black MaxiSorp 96-wellmicroplate, covered and incubated overnight at 4° C. Blank control wells were incubated with carbonate coating buffer containing no C3b protein. Wells were washed 3 times with 300 μl PBST then blocked for 1 hour with reagent dilution buffer (1% BSA in PBS). Wells were washed again 3 times with 300 μl PBST. Dilutions of recombinant protective CFH, CFHT, oCFHT or supernatant from transiently transfected or transduced Cos-7 cells were prepared in reagent dilution buffer, added to wells in triplicate and incubated for 1 hour at room temperature. The plate was washed as above then incubated for 1 hour with anti-CFH/CFHT biotinylated aCTM87b antibody (OX-24, AbCam, Cat. #ab112197) at 1:1000 dilution. The plates were washed as above, then incubated for 1 hour with high sensitivity Streptavidin-HRP (Pierce Cat. #21130) at 1:10,000, washed as above then incubated for 5 minutes with SuperSignal ELISA Pico Chemiluminescent Substrate (Thermo Scientific, Cat. #37069) before detection using the BioTek Synergy4 plate reader. […]

C3 convertase, C3bBb = C3 convertase, C3bBb (UniProt P01024 23-1663; P00751 260-764, limits assumed); test: cell-based or functional assay
C3 convertase, C3bBb, sequence (P01024 23-1663 limits assumed, chain 1 of 2): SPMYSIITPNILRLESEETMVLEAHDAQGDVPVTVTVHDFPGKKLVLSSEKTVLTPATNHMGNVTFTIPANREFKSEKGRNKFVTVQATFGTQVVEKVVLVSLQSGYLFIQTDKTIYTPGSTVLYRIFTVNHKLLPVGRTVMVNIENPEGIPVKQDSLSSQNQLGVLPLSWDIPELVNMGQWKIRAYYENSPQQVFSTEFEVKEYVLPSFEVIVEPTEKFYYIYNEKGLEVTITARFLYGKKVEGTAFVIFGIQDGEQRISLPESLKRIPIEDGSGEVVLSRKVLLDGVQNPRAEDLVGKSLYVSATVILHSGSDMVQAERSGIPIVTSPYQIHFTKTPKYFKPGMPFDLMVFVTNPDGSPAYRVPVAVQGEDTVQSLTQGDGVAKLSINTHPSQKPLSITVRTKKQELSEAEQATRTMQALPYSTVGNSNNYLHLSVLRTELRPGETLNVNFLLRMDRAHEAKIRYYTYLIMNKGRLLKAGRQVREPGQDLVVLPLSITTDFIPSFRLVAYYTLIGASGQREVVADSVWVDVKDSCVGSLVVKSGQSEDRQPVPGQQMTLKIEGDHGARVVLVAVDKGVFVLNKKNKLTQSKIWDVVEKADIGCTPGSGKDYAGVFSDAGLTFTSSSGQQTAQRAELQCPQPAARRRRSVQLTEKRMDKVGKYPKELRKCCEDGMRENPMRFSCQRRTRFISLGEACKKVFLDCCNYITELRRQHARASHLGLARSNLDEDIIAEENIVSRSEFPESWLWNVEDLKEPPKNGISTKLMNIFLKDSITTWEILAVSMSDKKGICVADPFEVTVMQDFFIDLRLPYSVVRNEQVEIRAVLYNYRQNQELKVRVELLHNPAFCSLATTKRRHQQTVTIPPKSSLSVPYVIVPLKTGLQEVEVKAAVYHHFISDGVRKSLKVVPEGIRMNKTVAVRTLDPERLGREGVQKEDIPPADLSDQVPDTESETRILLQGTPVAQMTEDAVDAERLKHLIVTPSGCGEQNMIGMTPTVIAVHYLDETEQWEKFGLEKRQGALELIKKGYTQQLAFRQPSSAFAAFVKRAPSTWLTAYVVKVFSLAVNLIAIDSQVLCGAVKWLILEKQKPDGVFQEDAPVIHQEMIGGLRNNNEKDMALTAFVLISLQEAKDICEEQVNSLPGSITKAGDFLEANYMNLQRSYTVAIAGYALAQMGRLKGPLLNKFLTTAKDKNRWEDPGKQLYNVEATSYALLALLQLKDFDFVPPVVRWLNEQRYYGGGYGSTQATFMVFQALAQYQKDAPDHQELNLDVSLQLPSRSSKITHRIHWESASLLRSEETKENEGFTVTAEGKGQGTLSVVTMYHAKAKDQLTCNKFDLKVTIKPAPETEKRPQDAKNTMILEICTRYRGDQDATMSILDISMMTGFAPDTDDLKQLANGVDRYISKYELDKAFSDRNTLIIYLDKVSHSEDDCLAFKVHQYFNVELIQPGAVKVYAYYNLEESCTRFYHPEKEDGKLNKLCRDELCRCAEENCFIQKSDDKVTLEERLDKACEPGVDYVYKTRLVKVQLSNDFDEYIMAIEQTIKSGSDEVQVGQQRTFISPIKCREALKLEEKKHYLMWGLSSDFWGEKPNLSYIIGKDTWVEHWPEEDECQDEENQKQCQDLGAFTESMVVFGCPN
C3 convertase, C3bBb, sequence (P00751 260-764 limits assumed, chain 2 of 2): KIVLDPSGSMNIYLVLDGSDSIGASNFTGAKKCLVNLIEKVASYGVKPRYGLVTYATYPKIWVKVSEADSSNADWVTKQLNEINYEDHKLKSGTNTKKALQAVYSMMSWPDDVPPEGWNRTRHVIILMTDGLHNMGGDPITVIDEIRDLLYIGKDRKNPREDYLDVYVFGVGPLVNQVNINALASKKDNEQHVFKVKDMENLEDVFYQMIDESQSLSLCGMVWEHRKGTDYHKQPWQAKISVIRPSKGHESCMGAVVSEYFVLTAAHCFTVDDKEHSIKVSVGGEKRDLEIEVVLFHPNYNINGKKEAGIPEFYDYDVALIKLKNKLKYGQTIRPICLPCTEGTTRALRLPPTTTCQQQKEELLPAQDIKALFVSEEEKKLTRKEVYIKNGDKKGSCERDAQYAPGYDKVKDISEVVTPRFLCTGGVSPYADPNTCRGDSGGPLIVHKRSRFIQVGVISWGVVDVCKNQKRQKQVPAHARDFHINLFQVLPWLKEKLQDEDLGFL

Binder	Fold Activity at Highest Dose (Relative to Control) (C3b protein [1])	Fold Activity at Highest Dose (Relative to Control) (CRP [2])	Fold Activity at Highest Dose (Relative to Control) (C3b protein [3])	Fold Activity at Highest Dose (Relative to Control) (CRP [4])	Fold Activity (Compared to CFHT-I62) (C3d ligand)	Fold Activity (Compared to CFHT-I62) (CRP [5])	Fold Activity (Compared to CFHT-I62) (C3b protein [6])	IC50, decay acceleration activity (DAA) assay (C3 convertase, C3bBb)	fold less active than unmodified CFHT, DAA assay (C3 convertase, C3bBb)
B1	3.8 fold	2.8 fold							
B2			1.5 fold						
B3			99 fold	49 fold					
B4			22 fold	6.4 fold	2.1 fold	2.2 fold	55.3 fold		
B5			43 fold	6.3 fold	3.8 fold	12.2 fold	40.1 fold	15.5 nM	8 fold
